Laboratory results published in PMC3751857.

Target: Gag of the HIV-1 YP- mutant (HIV-1 (pNL4-3))

Substance: Flag-DUb-TSG101 (from UniProt P10220 15-260)
- release of HIV-1 YP- virus from 293T cells co-expressing Flag-DUb-TSG101 (Figure 2A, lane 3); inactive DUb*-TSG101 and DUb-TSG101 M95A had no effect: > 95%
